From US12590158 (XIYUAN ANJIAN MEDICINE SHANGHAI, dated 2026)
Residue numbers refer to the chain shown, from its start. One block for each binder: values may come before it.

What was measured:
[1] = molecular target: T1, full-length human TrkA expressed on cells (human, UniProt P04629 33-796); experiment: cell-based or functional assay
[2] = molecular target: T1, full-length human TrkA expressed on …; experiment: cell-based or functional assay; remark: listed apart in the source
[3] = molecular target: T2, human TrkB expressed on CHO cells (TrkB/CHO, ThermoFisher K1491) (human, UniProt Q16620 32-822); experiment: flow cytometry on TrkB/CHO cells
T2 construct: whole, on cells
Experimental: (§1) CHO-K1 was used as a negative control. The binding of the humanized antibodies to the four cell lines was detected by flow cytometry.
(§2) The cells were cultured according to the manufacturer's instruction. The cells were harvested in the logarithmic growth phase, re-suspended in flow buffer (PBS+2% FBS, pH 7.4), and added into 96-well plate, 10^5 cells per well (50 µl). 50 µl of 100 µg/mL humanized anti-TrkA antibody was added, incubated at room temperature for 60 min, and centrifuged at 1200 rpm. The supernatant was discarded and the cells were washed 3 times. FITC-labeled goat anti-human Fc antibody (Abeam, ab97224) was diluted to 5 µg/mL with flow buffer and used to re-suspend the cells, incubated at room temperature for 30 min in the dark, centrifuged, and the supernatant was discarded. After washing 3 times, the cells were re-suspended with 7AAD solution (Biolegend, 420403), incubated for 10 min at room temperature, and the binding of the antibody was detected with a flow cytometer (BioRad, ZE5).

[4] = molecular target: T3, human TrkC expressed on CHO cells (TrkC/CHO, ThermoFisher K1515) (human, UniProt Q16288 32-839); experiment: flow cytometry on TrkC/CHO cells
T3 construct: whole, on cells
Experimental: as §1, §2

[5] = molecular target: T4, human TrkA extracellular region (33-417) protein containing mouse Fc (human, UniProt P04629 33-417); experiment: ELISA, coated human TrkA (33-417)-mouse Fc, anti-human IgG-HRP
T4 construct: range 33-417
Experimental: Each well of a 96-well microtiter plate was coated with 50 ng of human TrkA, washed and blocked, then added with serially diluted humanized antibodies, and incubated for 1 hour at room temperature. After washing three times, horseradish peroxidase-conjugated goat anti-human IgG antibody (ThermoFisher, A18817) was added and reacted at room temperature for 1 hour. After washing three time, tetramethylbenzidine (TMB, Biolegend) was added for color development. 1M HCl was used to terminate the color development, and the absorbance values were read at 450 nm with a microplate reader.

[6] = molecular target: T1, full-length human TrkA expressed on …; experiment: flow cytometry titration on TrkA/CHO cells
Experimental: as §2
The binding curve of the humanized anti-TrkA antibodies and TrkA/CHO cells was detected with the same flow cytometry.

[7] = molecular target: T2, human TrkB expressed on CHO cells …; experiment: flow cytometry on TrkB/CHO cells, FITC goat anti-human Fc
Experimental: as §1, §2

[8] = molecular target: T3, human TrkC expressed on CHO cells …; experiment: flow cytometry on TrkC/CHO cells, FITC goat anti-human Fc
Experimental: as §1, §2

[9] = molecular target: full-length human TrkA expressed on cells (human) (UniProt P04629); experiment: cell-based or functional assay
[10] = molecular target: T5, TrkA extracellular region (33-417) protein comprising human Fc (ACROBiosystems TRA-H5259) (human, UniProt P04629 33-417); experiment: competition ELISA, coated TrkA (33-417)-hFc, antibody titrated, competitor biotin-labeled human NGF
T5 construct: range 33-417; Bought fusion protein; also called human TrkA (33-417); human TrkA extracellular region
Experimental: Each well of a 96-well microtiter plate was coated with 50 ng of TrkA extracellular region (33-417) protein fused to human Fc, washed three times and blocked with 3% BSA for 1 hour. […] Each well was added with 100 μl and incubated at room temperature for 30 minutes. […] Streptavidin-labeled horseradish peroxidase (Streptavidin-HRP, Biolegend, 405210) was added and incubated for 0.5 hours. After washing three times, TMB was added to the plate, and the absorbance at 450 nm was read by a microplate reader after the color development was terminated.

T1 sequence (P04629 33-796): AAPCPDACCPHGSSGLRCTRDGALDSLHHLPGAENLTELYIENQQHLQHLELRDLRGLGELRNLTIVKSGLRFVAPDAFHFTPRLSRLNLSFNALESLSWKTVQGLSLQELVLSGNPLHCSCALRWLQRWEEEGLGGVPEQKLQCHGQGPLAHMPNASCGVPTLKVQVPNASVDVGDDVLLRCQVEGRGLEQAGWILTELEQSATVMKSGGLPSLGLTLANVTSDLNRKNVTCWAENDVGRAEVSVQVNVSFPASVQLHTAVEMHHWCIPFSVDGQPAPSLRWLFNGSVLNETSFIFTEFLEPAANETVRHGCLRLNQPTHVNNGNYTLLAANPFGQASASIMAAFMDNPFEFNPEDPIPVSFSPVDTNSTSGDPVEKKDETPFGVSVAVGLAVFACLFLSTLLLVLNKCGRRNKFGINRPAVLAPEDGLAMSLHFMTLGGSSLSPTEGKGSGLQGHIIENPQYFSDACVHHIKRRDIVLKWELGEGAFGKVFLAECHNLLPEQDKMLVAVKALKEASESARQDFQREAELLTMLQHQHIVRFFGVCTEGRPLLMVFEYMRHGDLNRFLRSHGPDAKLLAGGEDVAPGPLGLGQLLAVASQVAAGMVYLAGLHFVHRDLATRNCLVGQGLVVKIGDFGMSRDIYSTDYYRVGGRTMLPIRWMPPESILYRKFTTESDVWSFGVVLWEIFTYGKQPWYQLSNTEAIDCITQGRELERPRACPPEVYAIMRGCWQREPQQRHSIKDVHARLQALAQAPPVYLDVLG
Sequence of full-length human TrkA expressed on cells (human) (P04629 33-796): as above
T2 sequence (Q16620 32-822): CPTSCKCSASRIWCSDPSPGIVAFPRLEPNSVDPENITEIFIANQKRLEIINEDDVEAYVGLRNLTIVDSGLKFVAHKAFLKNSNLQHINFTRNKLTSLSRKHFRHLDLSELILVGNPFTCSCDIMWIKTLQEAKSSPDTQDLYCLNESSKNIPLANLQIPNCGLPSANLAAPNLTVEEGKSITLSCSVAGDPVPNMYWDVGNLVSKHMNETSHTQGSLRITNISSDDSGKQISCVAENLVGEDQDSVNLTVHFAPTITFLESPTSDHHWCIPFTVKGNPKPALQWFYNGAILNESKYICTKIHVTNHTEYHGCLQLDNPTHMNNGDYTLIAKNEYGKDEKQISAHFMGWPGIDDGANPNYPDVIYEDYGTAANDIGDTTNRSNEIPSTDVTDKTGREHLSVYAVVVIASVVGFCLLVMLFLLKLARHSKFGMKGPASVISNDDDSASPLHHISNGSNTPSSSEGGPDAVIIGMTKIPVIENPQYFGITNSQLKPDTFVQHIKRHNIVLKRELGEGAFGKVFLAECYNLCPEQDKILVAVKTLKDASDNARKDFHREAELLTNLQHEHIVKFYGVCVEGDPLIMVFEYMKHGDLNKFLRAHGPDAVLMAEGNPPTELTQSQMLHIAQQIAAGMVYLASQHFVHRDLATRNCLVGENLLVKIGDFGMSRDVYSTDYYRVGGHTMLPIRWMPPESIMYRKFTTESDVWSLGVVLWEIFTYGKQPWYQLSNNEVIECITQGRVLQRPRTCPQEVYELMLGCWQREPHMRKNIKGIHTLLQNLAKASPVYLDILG
T4 sequence (P04629 33-417 limits assumed): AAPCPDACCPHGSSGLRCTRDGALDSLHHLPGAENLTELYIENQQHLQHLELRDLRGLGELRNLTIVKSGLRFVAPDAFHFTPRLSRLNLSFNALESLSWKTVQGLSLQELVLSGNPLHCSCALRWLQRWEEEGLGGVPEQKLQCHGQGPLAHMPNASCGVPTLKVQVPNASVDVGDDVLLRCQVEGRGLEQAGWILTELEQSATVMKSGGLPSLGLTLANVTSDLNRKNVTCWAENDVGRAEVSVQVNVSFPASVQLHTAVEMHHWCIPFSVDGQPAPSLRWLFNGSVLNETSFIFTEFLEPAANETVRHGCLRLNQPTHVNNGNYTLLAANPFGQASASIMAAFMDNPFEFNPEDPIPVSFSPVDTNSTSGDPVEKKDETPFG
T3 sequence (Q16288 32-839): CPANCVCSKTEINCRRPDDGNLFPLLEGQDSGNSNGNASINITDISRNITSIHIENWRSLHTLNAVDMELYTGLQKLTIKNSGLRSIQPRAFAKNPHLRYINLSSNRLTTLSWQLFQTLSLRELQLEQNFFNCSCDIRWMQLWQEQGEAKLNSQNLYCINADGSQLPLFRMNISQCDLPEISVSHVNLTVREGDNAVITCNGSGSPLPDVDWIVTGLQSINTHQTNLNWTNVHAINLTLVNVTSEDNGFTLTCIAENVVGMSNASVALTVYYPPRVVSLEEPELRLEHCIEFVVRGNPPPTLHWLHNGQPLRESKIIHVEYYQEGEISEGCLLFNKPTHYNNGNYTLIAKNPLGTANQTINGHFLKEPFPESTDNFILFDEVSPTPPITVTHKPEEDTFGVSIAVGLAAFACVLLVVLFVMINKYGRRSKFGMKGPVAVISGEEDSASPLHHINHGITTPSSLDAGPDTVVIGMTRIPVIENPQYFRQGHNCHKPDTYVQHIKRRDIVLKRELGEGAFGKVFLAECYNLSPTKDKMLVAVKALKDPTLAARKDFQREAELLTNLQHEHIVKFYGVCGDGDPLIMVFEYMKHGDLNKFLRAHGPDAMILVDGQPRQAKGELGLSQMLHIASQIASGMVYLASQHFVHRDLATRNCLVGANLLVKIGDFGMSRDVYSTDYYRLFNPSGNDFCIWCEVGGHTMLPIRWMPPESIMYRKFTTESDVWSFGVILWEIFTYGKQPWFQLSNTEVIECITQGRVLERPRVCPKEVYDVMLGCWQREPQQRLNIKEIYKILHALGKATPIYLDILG
T5 sequence (P04629 33-417 limits assumed): as the sequence (P04629 33-417 limits assumed) above

IC50 of inhibiting NGF-induced TF-1 cell proliferation [1]: 1.43 nM
IC50 of inhibiting NGF-induced TrkA/Ba/F3 cell proliferation [2]: 2.91 nM
binding result [3]: no binding (tested: 50 µl of 100 µg/mL)
binding result [4]: no binding (tested: 50 µl of 100 µg/mL)
EC50 [5]: 0.056 nM
B1: humanized anti-TrkA antibody 42F5-03 (antibody, V domains shown)
VH: QVQLVQSGAEVKKPGASVKVSCKSSGYTFTNYWMHWVRQAPGQGLEWIGEIYPNNGRVNYNEKFKNRATLTVDISISTAYMELSRLRSDDTAVYYCARSRYDPMEDWGQGTTVTVSS
VL: DVQLTQSPSSLSASVGDRVTITCSASSSVGYMHWYQQKPGKAPKRWIYDTSKLASGVPSRFSGSGSGTDYTLTISSLQPEDFATYFCQQWSSIPLTFGQGTRLEIK
notes: VH grafted to human IgG4 heavy chain constant region, VL to human Kappa light chain constant region

IC50 of inhibiting NGF-induced TF-1 cell proliferation [1]: 1.4 nM
IC50 of inhibiting NGF-induced TrkA/Ba/F3 cell proliferation [2]: 2.81 nM
EC50 [6]: 0.513 nM
EC50 [5]: 0.05 nM
binding result [7]: no binding
binding result [8]: no binding
B2: humanized anti-TrkA antibody 42F5-11 (antibody, V domains shown)
VH: B1 VH
VL: EVVLTQSPATLSLSPGERATLSCSASSSVGYMHWYQQKPGQAPRRWIYDTSKLASGVPARFSGSGSGTDYTLTISSLEPEDAAVYFCQQWSSIPLTFGQGTRLEIK
notes: as for B1

IC50 of inhibiting NGF-induced TF-1 cell proliferation [1]: 1.65 nM
IC50 of inhibiting NGF-induced TrkA/Ba/F3 cell proliferation [2]: 3.54 nM
EC50 [6]: 0.535 nM
EC50 [5]: 0.055 nM
binding result [7]: no binding
binding result [8]: no binding
B3: humanized anti-TrkA antibody 42F5-08 (antibody, V domains shown)
VH: B1 VH with A16S, I76T, R85S, D89E
VL: B1 VL with D1Q
notes: VH grafted to human IgG4 heavy chain constant region, VL to human Kappa light chain constant region; also called 43F5-08 [sic]

IC50 of inhibiting NGF-induced TF-1 cell proliferation [1]: 1.69 nM
IC50 of inhibiting NGF-induced TrkA/Ba/F3 cell proliferation [2]: 3.69 nM
binding result [3]: no binding (tested: 50 µl of 100 µg/mL)
binding result [4]: no binding (tested: 50 µl of 100 µg/mL)
EC50 [5]: 0.07 nM
B4: humanized anti-TrkA antibody 42F5-04 (antibody, V domains shown)
VH: B1 VH with A16S, I76T, R85S, D89E
VL: B1 VL
notes: as for B1

IC50 of inhibiting NGF-induced TF-1 cell proliferation [1]: 1.94 nM
IC50 of inhibiting NGF-induced TrkA/Ba/F3 cell proliferation [2]: 3.27 nM
EC50 [6]: 0.547 nM
EC50 [5]: 0.071 nM
binding result [7]: no binding
binding result [8]: no binding
B5: humanized anti-TrkA antibody 42F5-14 (antibody, V domains shown)
VH: B1 VH with I48M, N55Q, A68V, L70M
VL: B1 VL with W46L
notes: 42F5-01 with NG55-56 of the VH mutated to QG55-56

IC50 of inhibiting NGF-induced TF-1 cell proliferation [1]: 0.867 nM
IC50 of inhibiting NGF-induced TrkA/Ba/F3 cell proliferation [2]: 3.31 nM
EC50 [6]: 0.518 nM
EC50 [5]: 0.087 nM
binding result [7]: no binding
binding result [8]: no binding
B6: humanized anti-TrkA antibody 42F5-13 (antibody, V domains shown)
VH: B1 VH with I48M, N55S, A68V, L70M
VL: B1 VL with W46L
notes: 42F5-01 with NG55-56 of the VH mutated to SG55-56

IC50 of inhibiting NGF-induced TF-1 cell proliferation [9]: > 200 nM
IC50 of inhibiting NGF-induced TrkA/Ba/F3 cell proliferation [9]: > 200 nM
inhibition rate for TrkA/Ba/F3 cell proliferation at 40 µg/mL (266.67 nM) [9]: < 50%
inhibition rate on NGF-induced TF-1 cell proliferation at 40 µg/mL (266.67 nM) [9]: < 40%
IC50 [10]: > 100 nM
B7: control antibody BXhVH5VL1 (antibody, V domains shown)
VH: EVKLLESGGGLVQPGGSLRLSCAASGFTFSTYTMSWVRQTPGKRLEWVAYISKGGGSTYYPDTVKGRFTISRDNSKNTLYLQMNSLRAEDTAVYYCARGAMYGNDFFYPMDYWGQGTTVTVSS
VL: EIVLTQSPATLSLSPGERATLSCSASSSVSYMHWYQQKPGQAPRLLIYTTSNLASGIPARFSGSGSGTDFTLTISSLEPEDFAVYYCHQWSSYPWTFGQGTKLEIK
